In article PMC8366450, “Human CPPED1 belongs to calcineurin‐like metallophosphoesterase superfamily and dephosphorylates PI3K‐AKT pathway component PAK4” (Journal of Cellular and Molecular Medicine, 2021):

B1: HIV-1 Tat interactive protein 2 (natural protein, human, UniProt Q9BUP3 1-242, looked up)
chain: MAETEALSKLREDFRMQNKSVFILGASGETGRVLLKEILEQGLFSKVTLIGRRKLTFDEEAYKNVNQEVVDFEKLDDYASAFQGHDVGFCCLGTTRGKAGAEGFVRVDRDYVLKSAELAKAGGCKHFNLLSSKGADKSSNFLYLQVKGEVEAKVEELKFDRYSVFRPGVLLCDRQESRPGEWLVRKFFGSLPDSWASGHSVPVVTVVRAMLNNVVRPRDKQMELLENKAIHDLGKAHGSLKP
notes: also called HTATIP2; source: S. cerevisiae, purified (GST tag); on bought array: HuProt v3.1, Cambridge Protein Arrays
B2: CRK proto-oncogene, adaptor protein (natural protein, human, UniProt P46108 1-304, looked up)
chain: MAGNFDSEERSSWYWGRLSRQEAVALLQGQRHGVFLVRDSSTSPGDYVLSVSENSRVSHYIINSSGPRPPVPPSPAQPPPGVSPSRLRIGDQEFDSLPALLEFYKIHYLDTTTLIEPVSRSRQGSGVILRQEEAEYVRALFDFNGNDEEDLPFKKGDILRIRDKPEEQWWNAEDSEGKRGMIPVPYVEKYRPASASVSALIGGNQEGSHPQPLGGPEPGPYAQPSVNTPLPNLQNGPIYARVIQKRVPNAYDKTALALEVGELVKVTKINVSGQWEGECNGKRGHFPFTHVRLLDQQNPDEDFS
notes: CRK proto-oncogene, adaptor protein, human, as on the HuProt v3.1 array; source: S. cerevisiae, purified (GST tag); on bought array: HuProt v3.1, Cambridge Protein Arrays
B3: Cell division cycle associated 3 (natural protein, human, UniProt Q99618 1-268, looked up)
chain: MGSAKSVPVTPARPPPHNKHLARVADPRSPSAGILRTPIQVESSPQPGLPAGEQLEGLKHAQDSDPRSPTLGIARTPMKTSSGDPPSPLVKQLSEVFETEDSKSNLPPEPVLPPEAPLSSELDLPLGTQLSVEEQMPPWNQTEFPSKQVFSKEEARQPTETPVASQSSDKPSRDPETPRSSGSMRNRWKPNSSKVLGRSPLTILQDDNSPGTLTLRQGKRPSPLSENVSELKEGAILGTGRLLKTGGRAWEQGQDHDKENQHFPLVES
notes: Cell division cycle associated 3, human, as on the HuProt v3.1 array; also called CDCA3; source: S. cerevisiae, purified (GST tag); on bought array: HuProt v3.1, Cambridge Protein Arrays
B4: Interferon-stimulated exonuclease gene 20 (enzyme)
chain: not shown
notes: Interferon-stimulated exonuclease gene 20, human, as on the HuProt v3.1 array; also called ISG20; source: S. cerevisiae, purified (GST tag); on bought array: HuProt v3.1, Cambridge Protein Arrays

Target: T1, human recombinant CPPED1 with N-terminal His-V5 dual tag (human, UniProt Q9BRF8 1-314)
T1 construct: Calcineurin-like phosphoesterase domain-containing protein 1 (CPPED1), human; cloned into PSF-OXB20-NH2-6HIS-V5-TEV; 38.9 kDa including the His-V5 dual tag; The vector name holds a TEV site; no cleavage is told; also called calcineurin-like phosphoesterase domain-containing protein 1; purified recombinant CPPED1; not shown: His6, N-terminal, kept; V5, N-terminal, kept
Assay: peptide or protein array; HuProt v3.1 human proteome microarray; >20 000 human recombinant proteins immobilised on the array; purified His-V5-CPPED1 applied
Details: both partners purified

Binding result, binds:
B1
B2
B3
B4
